# Test results reported in US20110301079A1 (INSTITUTO DI RICERCHE DI BIOLOGIA MOLECOLARE P ANGELETTI S …, published 2011).
# Groups on a side chain read outwards from the residue. *: point of attachment. cholesteroyl = cholesterol group linked to a cysteine residue via the side-chain thiol; Succinimide(1-Et,3-yl) = CCN1C(=O)CC(*)C1=O
# T1: dog NMUR1-ATG (dog, UniProt A0A8I3S7S8 1-422)
# T1 sequence: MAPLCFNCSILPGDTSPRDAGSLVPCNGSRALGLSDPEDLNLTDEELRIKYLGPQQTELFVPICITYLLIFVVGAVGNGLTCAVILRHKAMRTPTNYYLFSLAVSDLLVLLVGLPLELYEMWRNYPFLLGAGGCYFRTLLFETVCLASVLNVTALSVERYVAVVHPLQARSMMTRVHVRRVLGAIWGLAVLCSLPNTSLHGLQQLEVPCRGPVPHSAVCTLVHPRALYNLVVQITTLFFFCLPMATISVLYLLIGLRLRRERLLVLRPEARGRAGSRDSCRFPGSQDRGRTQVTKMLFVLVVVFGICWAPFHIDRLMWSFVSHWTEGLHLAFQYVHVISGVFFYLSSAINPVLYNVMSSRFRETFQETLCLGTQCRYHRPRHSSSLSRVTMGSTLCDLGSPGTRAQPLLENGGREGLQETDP
# T2: human NMUR1 (human, UniProt Q9HB89 1-426)
# T2 sequence (looked up): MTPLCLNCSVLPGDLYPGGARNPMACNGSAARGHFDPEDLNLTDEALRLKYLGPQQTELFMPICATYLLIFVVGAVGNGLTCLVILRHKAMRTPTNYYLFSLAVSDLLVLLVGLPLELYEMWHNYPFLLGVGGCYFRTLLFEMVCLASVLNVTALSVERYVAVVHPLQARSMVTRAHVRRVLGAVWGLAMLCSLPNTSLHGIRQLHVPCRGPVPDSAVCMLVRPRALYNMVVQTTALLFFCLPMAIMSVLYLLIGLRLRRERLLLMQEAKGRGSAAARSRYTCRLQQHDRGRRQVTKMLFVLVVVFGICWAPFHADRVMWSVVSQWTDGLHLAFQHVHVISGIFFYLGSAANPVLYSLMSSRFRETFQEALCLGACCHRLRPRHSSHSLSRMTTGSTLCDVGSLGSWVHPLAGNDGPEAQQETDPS
# T3: mouse NMUR1-ATG (mouse, UniProt O55040 1-428)
# T3 sequence (looked up): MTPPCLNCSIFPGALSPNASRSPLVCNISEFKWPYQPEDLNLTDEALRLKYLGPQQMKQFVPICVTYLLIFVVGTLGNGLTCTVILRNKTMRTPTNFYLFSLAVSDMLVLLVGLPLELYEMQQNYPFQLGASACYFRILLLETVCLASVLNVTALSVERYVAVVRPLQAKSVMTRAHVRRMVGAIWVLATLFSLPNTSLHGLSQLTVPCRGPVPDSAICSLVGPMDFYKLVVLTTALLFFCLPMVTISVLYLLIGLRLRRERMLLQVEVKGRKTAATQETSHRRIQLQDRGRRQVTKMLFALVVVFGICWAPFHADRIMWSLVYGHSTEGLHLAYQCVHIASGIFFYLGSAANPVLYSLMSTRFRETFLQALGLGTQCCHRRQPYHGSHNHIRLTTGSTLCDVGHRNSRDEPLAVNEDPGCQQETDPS
# B1: NMS1 (Ac-C2ILQRGSGTAAVDFTKKDHTATWGRPFFLFRPRN-CONH2) (peptide)
# peptide: Ac-C([maleimide-(PEG)2 40 kDa])ILQRGSGTAAVDFTKKDHTATWGRPFFLFRPRN-NH2
# B2: NMS5 (Pam-ILQRGSGTAAVDFTKKDHTATWGRPFFLFRPRN-CONH2) (peptide)
# peptide: ILQRGSGTAAVDFTKKDHTATWGRPFFLFRPRN
# HELM: PEPTIDE1{[CCCCCCCCCCCCCCCC(=O)[*:2]].I.L.Q.R.G.S.G.T.A.A.V.D.F.T.K.K.D.H.T.A.T.W.G.R.P.F.F.L.F.R.P.R.N.[am]}$$$$V2.0
# SMILES: CCCCCCCCCCCCCCCC(=O)N[C@H](C(=O)N[C@@H](CC(C)C)C(=O)N[C@@H](CCC(N)=O)C(=O)N[C@@H](CCCNC(=N)N)C(=O)NCC(=O)N[C@@H](CO)C(=O)NCC(=O)N[C@H](C(=O)N[C@@H](C)C(=O)N[C@@H](C)C(=O)N[C@H](C(=O)N[C@@H](CC(=O)O)C(=O)N[C@@H](Cc1ccccc1)C(=O)N[C@H](C(=O)N[C@@H](CCCCN)C(=O)N[C@@H](CCCCN)C(=O)N[C@@H](CC(=O)O)C(=O)N[C@@H](Cc1c[nH]cn1)C(=O)N[C@H](C(=O)N[C@@H](C)C(=O)N[C@H](C(=O)N[C@@H](Cc1c[nH]c2ccccc12)C(=O)NCC(=O)N[C@@H](CCCNC(=N)N)C(=O)N1CCC[C@H]1C(=O)N[C@@H](Cc1ccccc1)C(=O)N[C@@H](Cc1ccccc1)C(=O)N[C@@H](CC(C)C)C(=O)N[C@@H](Cc1ccccc1)C(=O)N[C@@H](CCCNC(=N)N)C(=O)N1CCC[C@H]1C(=O)N[C@@H](CCCNC(=N)N)C(=O)N[C@@H](CC(N)=O)C(N)=O)[C@@H](C)O)[C@@H](C)O)[C@@H](C)O)C(C)C)[C@@H](C)O)[C@@H](C)CC
# B3: NMS2 (Ac-C3ILQRGSGTAAVDFTKKDHTATWGRPFFLFRPRN-CONH2) (peptide)
# peptide: Ac-C(cholesteroyl)ILQRGSGTAAVDFTKKDHTATWGRPFFLFRPRN-NH2
# B4: NMS3 (Ac-C1ILQRGSGTAAVDFTKKDHTATWGRPFFLFRPRN-CONH2) (peptide)
# peptide: Ac-C(Succinimide(1-Et,3-yl))ILQRGSGTAAVDFTKKDHTATWGRPFFLFRPRN-NH2
# SMILES: CC[C@H](C)[C@H](NC(=O)[C@H](CSC1CC(=O)N(CC)C1=O)NC(C)=O)C(=O)N[C@@H](CC(C)C)C(=O)N[C@@H](CCC(N)=O)C(=O)N[C@@H](CCCNC(=N)N)C(=O)NCC(=O)N[C@@H](CO)C(=O)NCC(=O)N[C@H](C(=O)N[C@@H](C)C(=O)N[C@@H](C)C(=O)N[C@H](C(=O)N[C@@H](CC(=O)O)C(=O)N[C@@H](Cc1ccccc1)C(=O)N[C@H](C(=O)N[C@@H](CCCCN)C(=O)N[C@@H](CCCCN)C(=O)N[C@@H](CC(=O)O)C(=O)N[C@@H](Cc1c[nH]cn1)C(=O)N[C@H](C(=O)N[C@@H](C)C(=O)N[C@H](C(=O)N[C@@H](Cc1c[nH]c2ccccc12)C(=O)NCC(=O)N[C@@H](CCCNC(=N)N)C(=O)N1CCC[C@H]1C(=O)N[C@@H](Cc1ccccc1)C(=O)N[C@@H](Cc1ccccc1)C(=O)N[C@@H](CC(C)C)C(=O)N[C@@H](Cc1ccccc1)C(=O)N[C@@H](CCCNC(=N)N)C(=O)N1CCC[C@H]1C(=O)N[C@@H](CCCNC(=N)N)C(=O)N[C@@H](CC(N)=O)C(N)=O)[C@@H](C)O)[C@@H](C)O)[C@@H](C)O)C(C)C)[C@@H](C)O
# B5: NMS4 (Ac-C4ILQRGSGTAAVDFTKKDHTATWGRPFFLFRPRN-CONH2) (peptide)
# peptide: Ac-C([maleimide-PEG 40 kDa])ILQRGSGTAAVDFTKKDHTATWGRPFFLFRPRN-NH2
# B6: native human Neuromedin S peptide (NMS) (peptide)
# peptide: H-ILQRGSGTAAVDFTKKDHTATWGRPFFLFRPRN-NH2
# Biological target: mouse NMUR2 (mouse, UniProt Q8BZ39 1-395)
# Sequence (Q8BZ39 whole entry): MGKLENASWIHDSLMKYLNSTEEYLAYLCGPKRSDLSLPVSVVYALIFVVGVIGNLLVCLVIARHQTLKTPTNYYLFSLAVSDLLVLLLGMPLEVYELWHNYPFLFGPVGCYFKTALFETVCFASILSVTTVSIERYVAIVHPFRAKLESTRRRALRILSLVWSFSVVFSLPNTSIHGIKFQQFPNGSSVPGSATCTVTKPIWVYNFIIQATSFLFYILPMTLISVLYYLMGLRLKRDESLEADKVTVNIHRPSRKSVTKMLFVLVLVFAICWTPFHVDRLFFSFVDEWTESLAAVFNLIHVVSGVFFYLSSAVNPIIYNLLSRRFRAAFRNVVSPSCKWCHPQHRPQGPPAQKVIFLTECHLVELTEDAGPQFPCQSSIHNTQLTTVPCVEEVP
# Assay: cell-based or functional assay
row,% Activity (maximum response at 1 µM compared to the human NMU-25 response) [%],Binder
1,99,B1
2,78,B2
3,32,B3
4,108,B4
5,104,B5
6,111,B6

# Biological target: T1, dog NMUR1-ATG
# Assay: cell-based or functional assay
row,% Activity (maximum response at 1 µM compared to the human NMU-25 response) [%],Binder
1,97,B1
2,82,B2
3,46,B3
4,101,B4
5,81,B5
6,100,B6

# Biological target: dog NMUR2 (dog)
# Assay: cell-based or functional assay
row,% Activity (maximum response at 1 µM compared to the human NMU-25 response) [%],Binder
1,78,B1
2,100,B2
3,84,B3
4,107,B4
5,101,B5
6,104,B6

# Biological target: T2, human NMUR1
# Assay: cell-based or functional assay
row,% Activity (maximum response at 1 µM compared to the human NMU-25 response) [%],Binder
1,91,B1
2,85,B2
3,11,B3
4,97,B4
5,88,B5
6,97,B6

# Biological target: human NMUR2 (human, UniProt Q9GZQ4 1-415)
# Sequence (Q9GZQ4 whole entry): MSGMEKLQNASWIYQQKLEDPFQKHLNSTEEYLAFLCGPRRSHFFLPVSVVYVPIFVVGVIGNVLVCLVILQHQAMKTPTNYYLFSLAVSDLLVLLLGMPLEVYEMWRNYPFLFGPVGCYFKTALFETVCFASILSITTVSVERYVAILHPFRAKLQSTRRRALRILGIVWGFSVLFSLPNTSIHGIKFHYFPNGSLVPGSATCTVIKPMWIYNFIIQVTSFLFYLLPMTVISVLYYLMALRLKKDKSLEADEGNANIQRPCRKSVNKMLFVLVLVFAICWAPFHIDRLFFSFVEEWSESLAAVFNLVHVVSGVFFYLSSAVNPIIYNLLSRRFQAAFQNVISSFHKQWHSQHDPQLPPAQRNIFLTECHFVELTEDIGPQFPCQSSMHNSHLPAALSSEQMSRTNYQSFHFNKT
# Assay: cell-based or functional assay
row,% Activity (maximum response at 1 µM compared to the human NMU-25 response) [%],Binder
1,81,B1
2,93,B2
3,16,B3
4,105,B4
5,94,B5
6,107,B6

# Biological target: T3, mouse NMUR1-ATG
# Assay: cell-based or functional assay
row,% Activity (maximum response at 1 µM compared to the human NMU-25 response) [%],Binder
1,82,B1
2,83,B2
3,39,B3
4,98,B4
5,95,B5
6,102,B6
